Test results reported in patent publication US20190135918A1 (ICHNOS SCIENCES, published 2019).
Values belong to the binder of their own block, whether it stands above or below them.

Legend:
[1] = molecular target: T1, F6 (peptide-Fc fusion derived from the extracellular domain of human CD38) (human, UniProt P0DOX5 195-449 = IgG part); assay: SPR
T1 construct: As F1; by count CD38 residues 108-120 (holds M110)

[2] = molecular target: T2, F3 (peptide-Fc fusion derived from the extracellular domain of human CD38) (human, UniProt P0DOX5 223-449 = IgG part); assay: SPR, SAR650984 on the chip, peptide-Fc fusion injected
T2 construct: As F1; by count CD38 residues 69-81; also called F3 construct

[3] = molecular target: T3, F1 (peptide-Fc fusion derived from the extracellular domain of human CD38) (human, UniProt P0DOX5 223-449 = IgG part); assay: SPR, antibody immobilized, peptide-Fc fusion injected
T3 construct: 13-residue peptide fused to human IgG1 Fc (CH2-CH3) with an Ala-Ser linker; by count CD38 residues 43-55

[4] = molecular target: T4, F2 (peptide-Fc fusion derived from the extracellular domain of human CD38) (human, UniProt P0DOX5 223-449 = IgG part); assay: as above
T4 construct: As F1; by count CD38 residues 56-68

[5] = molecular target: T2, F3 (peptide-Fc fusion derived from the …); assay: as above
[6] = molecular target: T5, F4 (peptide-Fc fusion derived from the extracellular domain of human CD38) (human, UniProt P0DOX5 223-449 = IgG part); assay: as above
T5 construct: As F1; by count CD38 residues 82-94

[7] = molecular target: T6, F5 (peptide-Fc fusion derived from the extracellular domain of human CD38) (human, UniProt P0DOX5 223-449 = IgG part); assay: as above
T6 construct: As F1; by count CD38 residues 95-107

[8] = molecular target: T7, F7 (peptide-Fc fusion derived from the extracellular domain of human CD38) (human, UniProt P0DOX5 223-449 = IgG part); assay: as above
T7 construct: As F1; by count CD38 residues 121-133

[9] = molecular target: T8, F8 (peptide-Fc fusion derived from the extracellular domain of human CD38) (human, UniProt P0DOX5 223-449 = IgG part); assay: as above
T8 construct: As F1; by count CD38 residues 134-146

[10] = molecular target: T9, F9 (peptide-Fc fusion derived from the extracellular domain of human CD38) (human, UniProt P0DOX5 223-449 = IgG part); assay: as above
T9 construct: As F1; by count CD38 residues 147-159

[11] = molecular target: T10, F13 (peptide-Fc fusion derived from the extracellular domain of human CD38) (human, UniProt P0DOX5 223-449 = IgG part); assay: as above
T10 construct: As F1; by count CD38 residues 199-211

[12] = molecular target: T11, F17 (peptide-Fc fusion derived from the extracellular domain of human CD38) (human, UniProt P0DOX5 223-449 = IgG part); assay: as above
T11 construct: As F1; by count CD38 residues 251-263

[13] = molecular target: T12, F20 (peptide-Fc fusion derived from the extracellular domain of human CD38) (human, UniProt P0DOX5 223-449 = IgG part); assay: as above
T12 construct: Final peptide of 11 amino acids, else as F1; by count CD38 residues 290-300

[14] = molecular target: T13, F10 (peptide-Fc fusion derived from the extracellular domain of human CD38) (human, UniProt P0DOX5 223-449 = IgG part); assay: SPR, humanized 9G7 immobilized on the chip, peptide-Fc fusion injected
T13 construct: As F1; by count CD38 residues 160-172

[15] = molecular target: T14, F11 (peptide-Fc fusion derived from the extracellular domain of human CD38) (human, UniProt P0DOX5 223-449 = IgG part); assay: as above
T14 construct: As F1; by count CD38 residues 173-185

[16] = molecular target: T15, F12 (peptide-Fc fusion derived from the extracellular domain of human CD38) (human, UniProt P0DOX5 223-449 = IgG part); assay: as above
T15 construct: As F1; by count CD38 residues 186-198

[17] = molecular target: T16, F14 (peptide-Fc fusion derived from the extracellular domain of human CD38) (human, UniProt P0DOX5 223-449 = IgG part); assay: as above
T16 construct: As F1; by count CD38 residues 212-224

[18] = molecular target: T17, F15 (peptide-Fc fusion derived from the extracellular domain of human CD38) (human, UniProt P0DOX5 223-449 = IgG part); assay: as above
T17 construct: As F1; by count CD38 residues 225-237

[19] = molecular target: T18, F16 (peptide-Fc fusion derived from the extracellular domain of human CD38) (human, UniProt P0DOX5 223-449 = IgG part); assay: as above
T18 construct: As F1; by count CD38 residues 238-250

[20] = molecular target: T19, F18 (peptide-Fc fusion derived from the extracellular domain of human CD38) (human, UniProt P0DOX5 223-449 = IgG part); assay: as above
T19 construct: As F1; by count CD38 residues 264-276

[21] = molecular target: T20, F19 (peptide-Fc fusion derived from the extracellular domain of human CD38) (human, UniProt P0DOX5 223-449 = IgG part); assay: as above
T20 construct: As F1; by count CD38 residues 277-289

- binding result [1]: binds
- binding result [2]: no binding (tested: not printed)
B1: SAR650984 antibody (antibody, human IgG1, kappa, V domains shown)
VH: QVQLVQSGAEVAKPGTSVKLSCKASGYTFTDYWMQWVKQRPGQGLEWIGTIYPGDGDTGYAQKFQGKATLTADKSSKTVYMHLSSLASEDSAVYYCARGDYYGSNSLDYWGQGTSVTVSS
VL: DIVMTQSHLSMSTSLGDPVSITCKASQDVSTVVAWYQQKPGQSPRRLIYSASYRYIGVPDRFTGSGAGTDFTFTISSVQAEDLAVYYCQQHYSPPYTFGGGTKLEIKR
notes: also called humanized SAR650984 antibody

- binding result [3]: no binding (tested: 15 nM; 200 nM)
- binding result [4]: no binding (tested: 15 nM; 200 nM)
- binding result [5]: no binding (tested: 15 nM; 200 nM)
- binding result [6]: no binding (tested: 15 nM; 200 nM)
- binding result [7]: no binding (tested: 15 nM; 200 nM)
- binding result [8]: no binding (tested: 15 nM; 200 nM)
- binding result [9]: no binding (tested: 15 nM; 200 nM)
- binding result [10]: no binding (tested: 15 nM; 200 nM)
- binding result [11]: no binding (tested: 15 nM; 200 nM)
- binding result [12]: no binding (tested: 15 nM; 200 nM)
- binding result [13]: no binding (tested: 15 nM; 200 nM)
- binding result [14]: no binding (tested: 15 nM)
- binding result [15]: no binding (tested: 15 nM)
- binding result [16]: no binding (tested: 15 nM)
- binding result [17]: no binding (tested: 15 nM)
- binding result [18]: no binding (tested: 15 nM)
- binding result [19]: no binding (tested: 15 nM)
- binding result [20]: no binding (tested: 15 nM)
- binding result [21]: no binding (tested: 15 nM)
B2: humanized 9G7 antibody (best-fit version) as used in Example 10 (antibody, human IgG1, kappa, V domains shown)
VH: QVTLKESGPTLVKPTQTLTLTCTFSGLSLSTSGKGVGWIRQPPGKALEWLAHIWWDDDKRYNPALKSRLTITKDTSKNQVVLTMTNMDPVDTATYYCARIELGRSYVMDYWGQGTLVTVSS
VL: DIQMTQSPSSLSASVGDRVTITCQASQDVITSVAWFQQKPGKAPKLLIYSASYRYTGVPSRFSGSGSGTDFTFTISSLQPEDIATYYCQQHYTIPLTFGQGTKLEIKR
notes: also called h9G7
